Self-cleavage data for 167 variants are collected here from the RNAGym collection of RNA variant scans (doi:10.7554/elife.80360).

The chains are these.
B1: HDV Ribozyme (parent)
chain: GGCCGGCAUGGUCCCAGCCUCCUCGCUGGCGCCGGCUGGGCAACAUUCCGAGGGGACCGUCCCCUCGGUAAUGGCGAAUGGGACCCA

In the series the parent is B1. As to the kind of experiment: self-cleavage, relative activity (ratio to wild type); higher = more cleavage; co-transcriptional.
In the case of C30G G40U, the self-cleavage was found to be 0.0514.
C30G G40C: the self-cleavage was found to be 0.106.
The same measure for G31U C41U: 0.151; for G31U C41G: 0.0437.
The value for G31C U46C was 0.178.
The same measure for C30U A71U: 0.372.
G31A U47A: the self-cleavage is 0.332.
The same measure for G31A U47C: 0.424; for G31U C33G: 0.0639; for G31U C33U: 0.125.
The value for G31U C33A was 0.0231.
The same measure for C30U C49G: 0.31; for C30U C49A: 0.698; for G31A U65C: 0.462.
As to G31A U65A, the self-cleavage came out at 0.366.
The same measure for G31A U65G: 0.34; for G31U C58U: 0.571; for G31U C58G: 0.282.
The value for C30U G35U was 0.0219.
The value for C30U U72C was 0.0959; that for C30U U72A was 0.277; that for C30U U72G was 0.128.
In the case of C30G G80A, the self-cleavage worked out at 0.141.
The same measure for C30G G68U: 0.0228; for C30G G68A: 0.126; for G31A C41A: 0.273.
The value for G31A C41G was 0.106.
As for G31A C41U, the self-cleavage came out at 0.269.
The same measure for G31A U46G: 0.0852; for G31A U46C: 0.166.
The value for C30U A56G was 0.665.
For C30U G39U, the self-cleavage was 0.0936.
The value for C30U G39C was 0.0314; that for G31A C62A was 0.445.
The same measure for G31A C62U: 0.554; for G31A C62G: 0.317; for G31U C62U: 0.404.
On to G31U C62G, for which the self-cleavage was found to be 0.19.
The same measure for C30G G35C: 0.198; for C30G G35U: 0.138.
Regarding C30G G35A, the self-cleavage came to 0.191.
The same measure for C30U A70C: 0.525; for G31C U60G: 0.222.
The same measure for G31C C66A: 0.405; for G31A C61U: 0.442; for C30U U46G: 0.231.
The value for G31C C58A was 0.325; that for G31C C58U was 0.339.
As for G31C C58G, the self-cleavage was 0.289.
The value for G31U A51G was 0.369; that for G31U A51U was 0.525.
The value for G31A U60C was 0.32; that for G31C G68C was 0.138; that for G31C G68U was 0.233.
Turning to G31A C57U, the self-cleavage turned out to be 0.421.
The value for G31U A71U was 0.181; that for G31A C49U was 0.404.
The same measure for C30G C85A: 0.0308; for G31C C48U: 0.475; for C30U C64G: 0.653.
The value for C30U C64A was 0.422; that for G31U C63G was 0.483; that for G31U C63U was 0.41.
G31U C63A: the self-cleavage stood at 0.468.
The value for G31A U69C was 0.525; that for C30U A45C was 0.138.
The same measure for C30U A45U: 0.32; for C30U C75A: 0.0959; for G31C A77C: 0.225.
For G31C G53U, the self-cleavage came to 0.496.
The same measure for G31C G53A: 0.572.
The same measure for G31C A83G: 0.219; for G31C A83U: 0.173; for G31C C33A: 0.0875.
The same measure for G31C C33G: 0.0852; for C30G C86U: 0.0332; for G31C G52C: 0.277.
Turning to G31C A42C, the self-cleavage was 0.128.
The same measure for G31C A42U: 0.0707; for G31C A45C: 0.104.
The same measure for G31C A45G: 0.293; for G31A C32A: 0.0941; for G31A C32G: 0.198.
As to C30U G76U, the self-cleavage came out at 0.805.
The value for C30U G76C was 0.683.
The same measure for C30U C85A: 0.441; for G31A G82C: 0.146; for G31A G82A: 0.166.
The value for G31U A77G was 0.231; that for G31U A77U was 0.0665.
Consider C30U G40A, for which the self-cleavage worked out at 0.645.
Consider G31U A45U, for which the self-cleavage came out at 0.175.
With C30U C62G, the self-cleavage amounted to 0.475.
The value for C30G G81U was 0.158.
As to C30G G81A, the self-cleavage was 0.0978.
The same measure for G31A G35A: 0.0455.
The same measure for C30U U79A: 0.293.
With G31C C86U, the self-cleavage amounted to 0.295.
The same measure for G31C C86A: 0.312; for G31C A51U: 0.212.
The same measure for G31A G34U: 0.0863.
The value for G31C G38C was 0.135.
In the case of G31C G38A, the self-cleavage amounted to 0.0692.
The value for G31C G59C was 0.378.
The same measure for G31C G59A: 0.483; for C30U U69A: 0.594; for C30U U69C: 0.796.
The same measure for G31C C41A: 0.305.
As for G31C C41U, the self-cleavage worked out at 0.138.
The value for C30G U46C was 0.0831; that for G31C C75A was 0.13; that for G31C C75U was 0.111.
The value for G31C U47C was 0.499; that for G31C U47G was 0.383; that for G31C G50A was 0.343.
The value for G31C G50U was 0.208.
Consider G31C G55U, for which the self-cleavage came out at 0.338.
The same measure for G31C G55A: 0.546; for G31C G82A: 0.0563; for G31A A78U: 0.175.
The same measure for G31A A78C: 0.169; for C30U G55U: 0.789; for C30G U65A: 0.032.
The same measure for G31A G76U: 0.749; for G31A G76A: 0.606.
C30G U69A: the self-cleavage stood at 0.148.
The value for C30G U69C was 0.18.
Consider C30U C33U, for which the self-cleavage turned out to be 0.369.
For the variant C30U G31C, the self-cleavage came to 0.13.
The value for C30U G31U was 0.0268.
The same measure for G31C C85A: 0.317.
The same measure for G31C C85U: 0.299; for C30U G81C: 0.148; for C30U G81U: 0.149.
On to G31C C62U, for which the self-cleavage amounted to 0.386.
The value for G31C C32A was 0.0875; that for G31C C32U was 0.0723.
In the case of G31C C32G, the self-cleavage worked out at 0.0396.
The value for C30U C57G was 0.683; that for G31C G67U was 0.402.
The same measure for G31C G67C: 0.272; for G31C A78U: 0.148.
The value for G31C C44U was 0.106.
Take G31C G35A: the self-cleavage is 0.16.
The value for C30G U37A was 0.0462; that for C30G G67C was 0.0528.
On to G31A C66U, for which the self-cleavage stood at 0.387.
As to G31A C48A, the self-cleavage came to 0.616.
The same measure for C30U G50A: 0.728.
The value for G31C was 0.363; that for G31A was 0.503; that for G31U was 0.47.
The value for C30U A77C was 0.181; that for G31U C36A was 0.106.
Consider G31U C36G, for which the self-cleavage was found to be 0.0906.
On to C30U G74C, for which the self-cleavage amounted to 0.113.
The same measure for C30U G74A: 0.0329; for G31C U37C: 0.0707.
The value for G31C A87C was 0.531; that for G31C A87G was 0.226; that for C30U G53A was 0.547.
The same measure for C30U G53C: 0.554.
With C30U G53U, the self-cleavage worked out at 0.697.
The value for C30U G82C was 0.102.
C30U G82U: the self-cleavage was determined as 0.252.
The same measure for G31A G53U: 0.346.
Consider G31A G53C, for which the self-cleavage worked out at 0.305.
